# Measurements taken from patent US20160184441A1, “PROLAMIN-BASED FILM AND METHOD FOR MANUFACTURING PROLAMIN-BASED ORAL FILM FOR PROTECTING ACTIVITY OF ANTI-OXIDATIVE MATERIAL” (SEHABIO CO., LTD., priority 2014, published 2016).
# What was measured:
# catalase [1] = assay: Catalase activity in the small intestine condition (pH 7.4, with or without trypsin); assay type: biochemical; conditions: pH 7.4, 30 minutes
# Protocol: (§1) In the prolamin-based film for oral delivery containing catalase, the activity of catalase was measured by checking the decomposition rate of hydrogen peroxide (H2O2). The activity of catalase was measured by mixing catalase or the prolamin-based film for oral delivery containing catalase with 10 μM of H2O2 in a buffering solution of pH 7.0, and then monitoring the absorbance value of H2O2 at 240 nm. Further, in the prolamin-based film for oral delivery containing SOD, SOD activity was measured in accordance with the manufacturer's instructions by using SOD assay kit (SOD determination kit 19,160, Fluka, St. Louis, Mo.). Significance of results was determined via t-test between Zein film and other films containing SOD or catalase with p<0.05(*).
# In order to mimic the small intestine condition, test groups were divided into […] Trypsin-treated group and Trypsin-untreated group, respectively, while being left for 30 minutes in the environment of pH 7.4.
# The activities of catalase and SOD were measured in the same manner as Example 2-1. Significance of results was determined via t-test between free enzymes and other delivery vehicles with p<0.05(*).
# catalase [2] = assay: Catalase activity in the stomach condition (HCl pH 1.3, with or without pepsin); assay type: biochemical; conditions: pH 1.3, 20 minutes, pepsin-treated or pepsin-untreated (FIG. 5, FIG. 6)
# Protocol: as §1
# The function of Zein in protecting an anti-oxidative protein in the stomach condition was evaluated. In order to mimic the stomach condition, catalase or the prolamin-based film for oral delivery containing catalase was added into hydrochloric acid solution (50.1 mM HCl, pH 1.3) and left for 20 minutes. […] The activities of catalase and SOD were measured in the same manner as Example 2-1. Significance of results was determined via t-test between free enzymes and other delivery vehicles with p<0.05(*).
# catalase [3] = assay: Catalase activity by decomposition rate of H2O2 (absorbance at 240 nm), pH 7.0; assay type: biochemical; conditions: free enzyme vs enzyme contained in film (FIG. 2, FIG. 3)
# Protocol: as §1
# The activities of catalases contained in the film for oral delivery as prepared in the Comparative Example 1-1 and Example 1-1 were compared. […] 1 mg of each formulation was taken to check the quantity of fluorescence which was then compared with the initially used quantity of fluorescence, resulting in the determination of the quantity of catalase in each formulation. The activity of catalase was evaluated at pH 7.0 as described in Example 2-1 by using fluorescent-unbound catalase, forming Zein Nanoparticle and Film, and taking 1 mg of each formulation. […]
# Human Skin Fibroblasts = conditions: Silverberg et al. 2012; cited from earlier work
Compound,"relative activity of catalase in the small intestine condition, Trypsin-treated (catalase [1]; Trypsin-treated group (FIG. 8, FIG. 9))","relative activity of catalase at pH 7.4, Trypsin-untreated (catalase [1]; Trypsin-untreated group (FIG. 8))",relative activity of catalase in the stomach condition (catalase [2]),relative activity of catalase (catalase [3]),protection of cells from reactive oxygens (Human Skin Fibroblasts)
catalase,lost its activity significantly,maintained its activity,lost almost completely its activity,approximately similar to those as contained in the Zein-based film,–
"Cn1c(=O)c2c(ncn2C)n(C)c1=O [Caffeine, caffeine]",–,–,–,–,able to protect cells from reactive oxygens
